Laboratory results as given in patent US20250085286A1.

Target: HRP-labelled monoclonal antibody targeting PRO-C22
Assay: competitive ELISA, standard peptide against coated Biotin-… for the HRP-mAb

HRP-labelled monoclonal antibody targeting PRO-C22, sequence (VH, as listed by the source limits assumed, chain 1 of 2): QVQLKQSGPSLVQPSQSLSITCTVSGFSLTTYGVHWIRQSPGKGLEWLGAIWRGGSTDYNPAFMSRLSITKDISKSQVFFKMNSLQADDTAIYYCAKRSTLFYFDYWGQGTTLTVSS
HRP-labelled monoclonal antibody targeting PRO-C22, sequence (VL, as listed by the source limits assumed, chain 2 of 2): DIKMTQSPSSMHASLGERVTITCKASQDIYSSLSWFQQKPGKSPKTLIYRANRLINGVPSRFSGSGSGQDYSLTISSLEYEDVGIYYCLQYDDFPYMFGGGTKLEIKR

## GPPGPPGQCDPSQCAYFASLAARPGNVKGP [30 AA standard peptide …]
  IC50: 8.15 ng/mL
